The target of the experiment is human β2 microglobulin (Homo sapiens, UniProt P61769).
Chain of human β2 microglobulin (P61769 21-119): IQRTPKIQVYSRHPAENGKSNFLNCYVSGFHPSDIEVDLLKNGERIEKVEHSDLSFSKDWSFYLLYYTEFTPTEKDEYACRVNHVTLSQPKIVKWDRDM

B1: CNb1 (VHH)
chain: QVQLQESGGGSVQAGGSLRLSCAASRCWFRQAPGKEREWVARYYADSVKGRFTFSQDNAKNTVYLQMDSLEPEDTATYYCCWGQGTQVTVSS
By Kd is commonly meant the concentration at which binding is half-saturated. Read a high Kd as lower affinity. On to B1, for which the equilibrium dissociation constant (Kd) was 46 nM.
